From patent US6534035B1, “Methods of inhibiting clot formation” (President and Fellows of Harvard College, priority 1998, dated 2003)
Where “and” joins values, the source holds several entries; their conditions need not be identical. Equal values may be shown once.

Experiments:
FXIIIa [1] = biological target: T1, FXIIIa (Homo sapiens, UniProt P00488); assay: Crosslinking of α2AP1-24 and variant peptides to fibrin clots; format: biochemical; conditions: 0.5 mM of each peptide clotted with human fibrinogen; compared to wild type α2AP1-24
T1 construct: purchased American Diagnostica
T1 sequence (P00488 39-732 limits assumed): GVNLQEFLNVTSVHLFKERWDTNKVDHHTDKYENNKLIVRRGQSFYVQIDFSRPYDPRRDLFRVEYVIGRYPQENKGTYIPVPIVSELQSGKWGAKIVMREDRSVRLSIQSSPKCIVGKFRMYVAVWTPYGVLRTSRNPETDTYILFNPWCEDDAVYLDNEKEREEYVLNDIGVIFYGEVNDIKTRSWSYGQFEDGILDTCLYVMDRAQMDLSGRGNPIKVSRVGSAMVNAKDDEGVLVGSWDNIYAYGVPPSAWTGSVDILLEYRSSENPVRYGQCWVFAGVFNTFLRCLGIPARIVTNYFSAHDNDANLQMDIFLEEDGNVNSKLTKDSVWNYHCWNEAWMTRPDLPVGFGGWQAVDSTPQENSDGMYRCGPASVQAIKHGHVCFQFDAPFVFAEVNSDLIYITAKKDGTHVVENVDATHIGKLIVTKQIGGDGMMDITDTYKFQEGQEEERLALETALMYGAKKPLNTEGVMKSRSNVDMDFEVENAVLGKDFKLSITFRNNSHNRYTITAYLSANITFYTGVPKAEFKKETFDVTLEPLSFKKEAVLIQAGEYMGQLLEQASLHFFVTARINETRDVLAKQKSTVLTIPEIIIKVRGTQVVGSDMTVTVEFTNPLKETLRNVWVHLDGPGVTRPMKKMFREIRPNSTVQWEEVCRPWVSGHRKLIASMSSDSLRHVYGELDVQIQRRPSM
Procedure: A 0.5 mM concentration of each peptide was clotted with human fibrinogen. After electrophoresis of the solubilized, reduced clots on 7.5% SDS-PAGE gels and transfer to PVDF membranes, the extent of crosslinking of each peptide was determined by incubating the membranes with a polyclonal antibody directed against the amino-terminus of α2AP, followed by incubation in ^125I-protein A, and exposure in a phosphorimager. Each bar reflects phosphorimage quantification of the fibrin crosslinking α2AP1-24 and the variant peptides. The mean±SD pixel volume of the quantified blots are shown.
(§1) Experiments were performed to determine how long FXIIIa in clots could crosslink various substrates such as human ^125I -α2AP, α2AP13-24 (SEQ ID NO:2), and 5-(biotinamido)pentylamine, into fibrin. In a typical experiment, clots were prepared (50 μl final volume) in duplicate by combining fibrinogen (2 mg/ml final), CaCl2 (2 mM final), buffer (Tris-buffered saline pH 7.4) and thrombin (1 U/ml) and incubating at 37° C. Synchronous with the addition of thrombin, or up to 240 minutes afterwards, the FXIIIa substrates 5-(biotinamido)pentylamine (0.5 mM final), ^125I -α2AP (70 μg/ml final), and α2AP13-24 (0 to 1 mM final) were mixed and added to the clot. In one set of control samples, FXIIIa was inhibited with iodoacetamide (10 mg/ml) prior to the addition of substrate; to another set, no substrate was added. After 2 hours of incubation at 37° C., iodoacetamide (10 mg/ml) was added to stop the reaction. The tubes were then centrifuged at 14,000 rpm for 2 minutes, washed and compressed in 1 ml saline to remove unbound proteins, and centrifuged again at 14,000 rpm for 2 minutes. After removal of the supernatant, the clots were solubilized in 100 μL of 9M urea, pH 9.0 at 37° C. for 60 minutes. Then 100 μl of SDS reducing sample buffer was added and the clots were placed at 85° C. for 30 minutes until fully solubilized. The samples were examined by SDS-PAGE. Crosslinked ^125I-α2AP was detected and quantitated by phosphorimaging. Samples containing crosslinked α2AP13-24 and pentylamine substrates were electroblotted to PVDF membranes and detected by ^125I-streptavidin followed by phosphorimaging or by streptavidin-peroxidase followed by the developing agents 5-bromo-4-chloro-3-indolyl phosphate-nitro blue tetrazolium using methods known in the art. In experiments examining the effect of specific amino acid residues on the crosslinking of the α2AP13-24 peptide (SEQ ID NO:2) to fibrin, crosslinking was detected by immunoblotting with an anti-peptide antibody directed against this epitope followed by ^125I-protein A and phosphorimaging. In some experiments, clots were formed by mixing 25 μl pooled human fresh frozen plasma with 25 μl 30 mM CaCl2 instead of using human fibrinogen.
Although FXIIIa can crosslink a number of lysine analogs to glutamine sites in macromolecules such as fibrin, its specificity for crosslinking glutamine-containing substrates (acyl donors) such as α2AP to fibrin has not been defined. To examine specificity, a wild-type α2AP fragment spanning residues 1-24 (MEPLGWQLTSGPNQEQVSPLTLLK; SEQ ID NO:16) and a panel of α2AP variant peptides (corresponding to residues 1-24 with the exception that one residue is altered from the wild type sequence; SEQ ID NO:11, 12, 13, 14, 15) was created with mutations of residues that represented other potential crosslinking sites or residues that are conserved among different α2APS from different species. […]

FXIIIa [2] = biological target: T1, FXIIIa; assay: Variant peptides as inhibitors of the crosslinking of α2AP13-24 into fibrin; format: biochemical; conditions: peptides used as inhibitors
Procedure: (§2) Experiments were performed to determine how long FXIIIa in clots could crosslink various substrates such as human ^125I -α2AP, α2AP13-24 (SEQ ID NO:2), and 5-(biotinamido)pentylamine, into fibrin. In a typical experiment, clots were prepared (50 μl final volume) in duplicate by combining fibrinogen (2 mg/ml final), CaCl2 (2 mM final), buffer (Tris-buffered saline pH 7.4) and thrombin (1 U/ml) and incubating at 37° C. Synchronous with the addition of thrombin, or up to 240 minutes afterwards, the FXIIIa substrates 5-(biotinamido)pentylamine (0.5 mM final), ^125I -α2AP (70 μg/ml final), and α2AP13-24 (0 to 1 mM final) were mixed and added to the clot. […] Crosslinked ^125I-α2AP was detected and quantitated by phosphorimaging. Samples containing crosslinked α2AP13-24 and pentylamine substrates were electroblotted to PVDF membranes and detected by ^125I-streptavidin followed by phosphorimaging or by streptavidin-peroxidase followed by the developing agents 5-bromo-4-chloro-3-indolyl phosphate-nitro blue tetrazolium using methods known in the art. In experiments examining the effect of specific amino acid residues on the crosslinking of the α2AP13-24 peptide (SEQ ID NO:2) to fibrin, crosslinking was detected by immunoblotting with an anti-peptide antibody directed against this epitope followed by ^125I-protein A and phosphorimaging. […]

FXIIIa [3] = biological target: T1, FXIIIa; assay: FXIIIa catalytic half-life: crosslinking of substrates into fibrin clots of various ages; format: biochemical
Procedure: as §1, with “In some experiments, clots were formed by mixing 25 μl pooled human fresh frozen plasma with 25 μl 30 mM CaCl2 instead of using human fibrinogen.” left out

FXIIIa [4] = biological target: T1, FXIIIa; assay: Dose-dependent crosslinking of α2AP13-24 into fibrin clots; format: biochemical; conditions: purified human fibrinogen
Procedure: as §2

pulmonary emboli = assay: Lysis of radiolabeled pulmonary emboli in ferrets; format: in vivo, ferret
Text: Pulmonary embolisms were induced in ferrets using standard methods, e.g., that described in Butte et al., 1997, Circulation. 95:1886-1891). Male ferrets (weighing approximately 1 kg) were anesthetized with ketamine and acepromazine. After full anesthesia had been obtained, the jugular vein and carotid artery were exposed by an anterior midline incision and cannulated with 20G catheters. Pooled, citrated human plasma was mixed with ^125I-fibrinogen to achieve a specific activity of approximately 1,000,000 cpm/ml. Individual clots were formed by mixing ^125I-fibrinogen-labeled plasma (45 μl) with 2.5 μl of bovine thrombin (100 units/ml) and 2.5 μl of calcium chloride (0.4 M). […] The radioactive content of the clots was measured in a gamma counter immediately before injection. […] Successful embolization was evinced by the accumulation of radioactivity in the thorax.
All animals received weight-adjusted heparin at 100 units/kg (bolus), a dose sufficient to keep the activated partial thromboplastin time (aPTT) above 150 seconds throughout the procedure. […] The percentage of clot lysis was determined for each ferret by dividing the total residual radioactivity in the thorax by that in the initial thrombi. […]

fibrinogen = assay: Residual fibrinogen level by sodium sulfite method; format: in vivo, ferret; conditions: ferrets, before and after treatment
Procedure: FIG. 2 is a bar graph showing the effects of factor XIIIa activity and TPA on residual fibrinogen levels. Fibrinogen levels were measured in 25 ferrets by sodium sulfite precipitation and expressed as a percentage of the fibrinogen level prior to the experiments (“before study” level was defined as 100%). The percent residual fibrinogen level (mean±SD) is shown for each group of 5 ferrets at the end of the experiment. The following conditions were evaluated: Control, normal factor XIIIa activity, no TPA; F13-I, factor XIIIa inhibited, no TPA; TPA, TPA with normal factor XIIIa activity; TPA+F13-I, TPA with inhibited factor XIIIa activity; TPA+α2AP-I, TPA with inhibited α2 antiplasmin-fibrin crosslinking.
Blood samples were collected on K3EDTA (0.15% solution, final concentration) with aprotinin (50 kallikrein units/ml). Platelet-poor plasma was obtained by centrifugation of whole blood and assayed for fibrinogen by a standard sodium sulfite method such as that described by Rampling et al. 1976, Clin Chim Acta. 67:43-52.

[5] = Activated partial thromboplastin time in heparinized ferrets; format: in vivo, ferret; conditions: heparin bolus 100 units/kg, throughout the experiment
Procedure: All animals received weight-adjusted heparin at 100 units/kg (bolus), a dose sufficient to keep the activated partial thromboplastin time (aPTT) above 150 seconds throughout the procedure. TPA was given as a continuous infusion over 2 hours (1 mg/kg in 5 ml of normal saline). […] The thorax was dissected and all intrathoracic structures were removed for gamma counting to detect residual thrombi. The percentage of clot lysis was determined for each ferret by dividing the total residual radioactivity in the thorax by that in the initial thrombi. A total of 28 animals was studied; three were excluded because of anesthetic-related death, improper TPA infusion, and failed embolism.

Compound: MEPLGWQLTSGPNQEQVSPLTNLK (listed as Homo sapiens) [L22N, α2AP1-24 variant peptide]
- crosslinking of peptide to fibrin (FXIIIa [1]): crosslinked into fibrin at rates comparable to that of the wild type

Compound: Q14A: α2AP1-24 variant peptide containing mutation Q14A (MEPLGWQLTSGPNAEQVSPLTLLK; listed as Homo sapiens)
- crosslinking of peptide to fibrin (FXIIIa [1]): not efficiently crosslinked to fibrin
- competition for crosslinking of α2AP13-24 into fibrin (FXIIIa [2]): all peptides but Q14A and V17N competed for crosslinking

Compound: O[C@H](CS)[C@H](O)CS (racemic) [DTT, dithiothreitol]
- effect of reducing agent on crosslinking in old clots (FXIIIa [3]; added to reaction mixtures, 2 or 4 hour old clots): restored the crosslinking of pentylamine or α2AP13-24 to fibrin clots

Compound: MEPLGWQLTSGPNQEAVSPLTLLK (listed as Homo sapiens) [Q16A, α2AP1-24 variant peptide]
- crosslinking of peptide to fibrin (FXIIIa [1]): crosslinked into fibrin at rates comparable to that of the wild type

Compound: hirudin [reference compound]
- effect on α2AP13-24 peptide-fibrin crosslinking (FXIIIa [4]): blocked α2AP13-24 peptide-fibrin crosslinking

Compound: NCCCCCNC(=O)CCCC[C@@H]1SC[C@@H]2NC(=O)N[C@@H]21 [pentylamine-biotin, 5-(biotinamido)pentylamine]
- residual FXIIIa crosslinking of substrate (FXIIIa [3]; substrate added to 2 or 4 hour old clots): little residual FXIIIa crosslinking

Compound: tissue plasminogen activator [TPA]
- lysis of pulmonary emboli compared with other group (pulmonary emboli; FIGS. 1A and 1B group comparisons): significantly increased lysis
- lysis of pulmonary emboli (mean±SD) (pulmonary emboli; TPA 1 mg/kg infused over 2 hours, heparin 100 units/kg, 4 hours after embolization): 32.3±7.7% and 32.2±7.7%
- residual fibrinogen level at end of study, percentage of initial value (fibrinogen): nonspecific degradation of fibrinogen did not occur

Compound: heparin
- activated partial thromboplastin time (aPTT) [5]: above 150 seconds

Compound: MEPLGWQLTSGPNQAQVSPLTLLK (MEPLGWQLTSGPNQAQVSPLTLLK; listed as Homo sapiens) [E15A, α2AP1-24 variant peptide]
- crosslinking of peptide to fibrin (FXIIIa [1]): crosslinked into fibrin at rates comparable to that of the wild type

Compound: V17N: α2AP1-24 variant peptide containing mutation V17N (MEPLGWQLTSGPNQEQNSPLTLLK; listed as Homo sapiens)
- crosslinking of peptide to fibrin (FXIIIa [1]): not efficiently crosslinked to fibrin
- competition for crosslinking of α2AP13-24 into fibrin (FXIIIa [2]): all peptides but Q14A and V17N competed for crosslinking
